Experimental findings from patent US8697369B2, “Method for screening a test substance for activating a receptor associated with FGF 21 activity” (National Institute of Advanced Industrial Science and …, priority 2007, dated 2014) are described below.

What all share (format): cell-based
Assay [1] has as its target T1, humanized FGFR1c (hR1c)-expressing BaF3 cells (Homo sapiens, UniProt P11362).
T1 construct: expressed in transfected cells; host or cells: BaF3 (mouse pro-B) cells; pSRalpha vector
Put plainly: DNA synthesis in humanized FGFR1c-expressing BaF3 cells. As to conditions: humanized FGFR1c only; 10 μg/ml heparin. An excerpt: In Examples 4, 5, 6, and 7, it was shown that FGF21 reacts with FGFR1c in the presence of betaKlotho. FGFR1c, betaKlotho, FGF21, and the like, which were used in an actual experimental system, were all derived from mice used as typical mammalian models. With regard to these molecules, the homology between a human and a mouse at the amino acid sequence level is extremely high (80% in FGF21, 78% in betaKlotho, and 98% in FGFR1). As a result, naturally, there are no problems regarding the compatibility of the human with the mouse, and thus it is clear that the same results as those from a murine molecule will be obtained even using a humanized molecule. In the present example, as a precautionary measure, an experimental system using a humanized molecule was constructed to confirm such respect, and an experiment was carried out. Specifically, the humanized cDNA of FGFR1c and that of betaKlotho were prepared from a commercially available human RNA sample (Takara Bio Inc.) by PCR. FGFR1c was introduced into an expression vector having an SRalpha promoter (pSRalpha), and betaKlotho was introduced into an expression vector having a CMV promoter (pcDNA3.1; Invitrogen). […] In the presence of heparin, humanized FGF21 was added in various types of concentrations to FGFR1c-expressing cells or FGFR1c/betaKlotho-co-expressing cells, and the amount of DNA synthesized was then measured.

The target of assay [2] is T2, humanized FGFR3c/humanized betaKlotho (hβKlotho)-expressing cells (Homo sapiens, UniProt P22607+Q86Z14, A441S/A461E/A470D/A499P/A500N/A559S/A717S/A734V/A765M/C582S/D512S/D516E/D576E/D580N/D722E/D758Q/D785E/DEL405-414/E426D/E447G/E729D/E768D/F566Y/F579Y/F591S/F767L/G446S/G448T/G548D/G773S/G774F/H721N/I440P/I494L/I698V/I726M/INS417HSQMAVHKLAKSI/INS423TV/INS780T/K420R/K464R/K501R/K583H/L398M/L425A/L457Y/L554I/L645I/L752V/M488L/N428S/N434G/N453G/N644H/P401G/P402T/P436L/P502V/P584N/P778R/Q611K/Q775P/R397K/R399K/R416D/R498K/R568Q/S432N/S468P/S578C/S781C/T435V/T450M/T473V/T504K/T581P/T590S/T753A/T757N/V503T/V523I/V642I/V670I/V751I/V754L).
T2 construct: expressed in transfected cells; host or cells: BaF3 (mouse pro-B) cells
Description: DNA synthesis in humanized FGFR3c/humanized betaKlotho-expressing BaF3 cells. As to conditions: humanized FGFR3c and humanized betaKlotho; 10 μg/ml heparin. How it is done: The homology between human FGFR3 and mouse FGFR3 at the amino acid sequence level is 93%. […] The cDNA of humanized FGFR3c was prepared from a commercially available human RNA sample (Takara Bio Inc.) by PCR. The sequence of its intracellular portion was substituted with the sequence of humanized FGFR1, and it was then introduced into an expression vector having an SRalpha promoter (pSRalpha). The FGFR3c expression vector was introduced into BaF3 cells by an electroporation method, so as to obtain FGFR3c-expressing BaF3 cells as G418-resistant clones. In the case of FGFR3c/betaKlotho-co-expressing cells, a betaKlotho expression vector was introduced into the FGFR3c-expressing BaF3 cells, so as to obtain the aforementioned cells as Puromycin-resistant clones. In the presence of heparin, humanized FGF21 was added in various types of concentrations to FGFR3c-expressing cells or FGFR3c/betaKlotho-co-expressing cells, and the amount of DNA synthesized was then measured.

The subject of assay [3] is undifferentiated 3T3-L1 fibroblasts. Put plainly: GLUT1 mRNA expression in undifferentiated 3T3-L1 fibroblasts. The note with it: various concentrations, 6 hours. How it is done: It has been reported that FGF21 allows adipocytes to increasingly express glucose transporter 1 (GLUT1). In the present example, as cultured adipocytes, there were used 3T3-L1 cells that are fibroblasts having the ability to differentiate into adipocytes by controlling culture conditions. The cells were cultured in a culture solution of a Dulbecco's modified Eagle medium (DMEM) containing 10% fetal bovine serum (FBS), so as to prepare cells maintaining an undifferentiated property as fibroblasts. The prepared cells were cultured in a test system, and they were allowed to grow to a confluent state. The cells were then left for 2 days. Thereafter, the culture solution was exchanged with DMEM as a culture solution used for differentiation induction, which comprised 10% FBS, 0.25 μM dexamethasone, 0.5 mM methyl isobutyl xanthine, and 5 μg/ml insulin. The cells were cultured for 2 days. […] The term “cells having the properties of adipocytes” is used herein to mean cells, which conduct intracellular metabolism specific to adipocytes and have cytoplasm in which large quantities of fat droplets are accumulated.
FGF21 were added in various types of concentrations to such different types of culture solutions, and the cells were further culture for 6 hours. Thereafter, RNA was extracted, and the copy number of GLUT1 was counted.

T2 sequence (P22607 other isoform, or with tags, fused parts or gaps with the stated changes): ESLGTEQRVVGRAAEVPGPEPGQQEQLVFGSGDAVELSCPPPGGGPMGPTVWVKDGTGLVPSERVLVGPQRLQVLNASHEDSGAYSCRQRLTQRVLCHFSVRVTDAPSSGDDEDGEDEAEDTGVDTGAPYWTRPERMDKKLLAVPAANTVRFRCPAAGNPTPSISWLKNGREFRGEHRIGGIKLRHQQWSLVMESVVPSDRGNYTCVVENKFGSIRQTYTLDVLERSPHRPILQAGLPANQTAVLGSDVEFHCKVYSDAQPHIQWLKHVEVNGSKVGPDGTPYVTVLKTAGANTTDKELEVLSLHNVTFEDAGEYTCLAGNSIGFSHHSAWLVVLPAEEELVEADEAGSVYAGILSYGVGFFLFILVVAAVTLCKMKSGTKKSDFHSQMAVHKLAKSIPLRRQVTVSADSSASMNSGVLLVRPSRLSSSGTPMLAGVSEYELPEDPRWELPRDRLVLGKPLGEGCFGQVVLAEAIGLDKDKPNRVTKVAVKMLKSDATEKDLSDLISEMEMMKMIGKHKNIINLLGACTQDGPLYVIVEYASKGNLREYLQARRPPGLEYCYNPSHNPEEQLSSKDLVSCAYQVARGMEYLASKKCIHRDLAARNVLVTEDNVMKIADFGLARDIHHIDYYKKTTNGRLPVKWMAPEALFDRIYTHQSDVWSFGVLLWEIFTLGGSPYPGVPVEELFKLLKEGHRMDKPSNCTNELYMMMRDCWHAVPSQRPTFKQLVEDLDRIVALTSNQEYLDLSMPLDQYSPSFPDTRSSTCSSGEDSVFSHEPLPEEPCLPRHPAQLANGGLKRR
T2 sequence (Q86Z14 whole entry, stated change not applied): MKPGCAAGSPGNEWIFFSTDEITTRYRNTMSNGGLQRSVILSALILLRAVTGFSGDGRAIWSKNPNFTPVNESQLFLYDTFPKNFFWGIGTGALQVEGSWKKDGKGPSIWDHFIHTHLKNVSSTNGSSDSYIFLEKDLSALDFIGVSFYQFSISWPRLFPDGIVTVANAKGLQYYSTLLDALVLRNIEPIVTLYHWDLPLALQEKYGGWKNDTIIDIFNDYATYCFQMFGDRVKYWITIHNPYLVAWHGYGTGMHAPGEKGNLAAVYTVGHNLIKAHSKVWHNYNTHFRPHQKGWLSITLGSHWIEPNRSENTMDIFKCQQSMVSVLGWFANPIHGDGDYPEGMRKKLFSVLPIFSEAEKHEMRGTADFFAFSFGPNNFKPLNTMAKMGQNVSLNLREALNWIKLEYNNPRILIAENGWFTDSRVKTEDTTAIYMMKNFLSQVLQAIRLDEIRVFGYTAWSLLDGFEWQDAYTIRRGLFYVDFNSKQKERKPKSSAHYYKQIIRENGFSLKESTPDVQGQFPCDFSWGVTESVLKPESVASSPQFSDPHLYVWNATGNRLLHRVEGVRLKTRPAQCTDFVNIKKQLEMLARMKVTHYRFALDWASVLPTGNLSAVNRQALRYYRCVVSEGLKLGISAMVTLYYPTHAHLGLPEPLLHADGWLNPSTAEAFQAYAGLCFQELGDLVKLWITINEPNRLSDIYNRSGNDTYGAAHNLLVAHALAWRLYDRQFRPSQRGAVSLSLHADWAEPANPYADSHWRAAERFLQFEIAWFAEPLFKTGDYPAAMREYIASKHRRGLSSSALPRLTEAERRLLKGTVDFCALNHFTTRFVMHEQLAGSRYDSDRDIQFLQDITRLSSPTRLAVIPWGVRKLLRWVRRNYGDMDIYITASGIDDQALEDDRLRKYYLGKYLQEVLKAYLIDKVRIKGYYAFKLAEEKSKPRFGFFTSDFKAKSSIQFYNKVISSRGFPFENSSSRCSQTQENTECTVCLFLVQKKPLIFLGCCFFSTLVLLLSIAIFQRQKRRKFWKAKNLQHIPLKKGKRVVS
T1 sequence (P11362 22-822): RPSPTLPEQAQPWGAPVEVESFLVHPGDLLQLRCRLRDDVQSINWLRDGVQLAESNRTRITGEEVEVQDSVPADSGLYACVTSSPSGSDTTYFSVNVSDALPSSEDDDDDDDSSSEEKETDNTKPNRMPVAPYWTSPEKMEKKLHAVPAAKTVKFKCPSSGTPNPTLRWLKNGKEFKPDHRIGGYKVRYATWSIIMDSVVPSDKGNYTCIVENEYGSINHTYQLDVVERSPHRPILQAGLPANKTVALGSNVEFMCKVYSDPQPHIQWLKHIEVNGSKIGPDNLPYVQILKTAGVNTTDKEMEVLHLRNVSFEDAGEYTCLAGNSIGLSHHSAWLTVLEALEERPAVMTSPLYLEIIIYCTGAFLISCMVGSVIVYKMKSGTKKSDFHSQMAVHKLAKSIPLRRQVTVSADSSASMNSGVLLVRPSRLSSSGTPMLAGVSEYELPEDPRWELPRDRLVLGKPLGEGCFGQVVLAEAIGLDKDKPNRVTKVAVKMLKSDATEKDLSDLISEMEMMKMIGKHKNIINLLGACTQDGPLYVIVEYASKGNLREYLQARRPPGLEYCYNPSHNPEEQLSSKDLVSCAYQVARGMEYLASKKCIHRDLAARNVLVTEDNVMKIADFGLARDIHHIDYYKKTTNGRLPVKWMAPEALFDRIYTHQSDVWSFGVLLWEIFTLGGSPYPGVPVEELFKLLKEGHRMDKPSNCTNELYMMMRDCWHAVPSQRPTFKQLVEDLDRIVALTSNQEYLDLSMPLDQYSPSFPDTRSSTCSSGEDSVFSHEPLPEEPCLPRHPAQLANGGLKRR

On to “FGF1: conventional FGF used as a control”, for which the “amount of DNA synthesized (thymidine incorporation)” value in assay [1] and in assay [2] was “promoted the DNA synthesis” each time.

B1: FGF21: fibroblast growth factor 21; mouse-derived protein used in Examples 1-7 and 10-13 (protein)
chain: AYPIPDSSPLLQFGGQVRQRYLYTDDDQDTEAHLEIREDGTVVGAAHRSPESLLELKALKPGVIQILGVKASRFLCQQPDGALYGSPHFDPEACSFRELLLEDGYNVYQSEAHGLPLRLPQKDSPNQDATSWGPVRFLPMPGLLHEPQDQAGFLPPEPPDVGSSDPLSMVEPLQGRSPSYAS
Take B1: the “expression level of GLUT1 mRNA” value in assay [3] was “hardly changed”.
